Data taken from paper PMC5443798, “Functional characterization of the meiosis-specific DNA double-strand break inducing factor SPO-11 from C. elegans”.
Residue numbers refer to the chain shown, from its start.

Tests used:
SPO-11 [1] = target: T1, SPO-11 (Caenorhabditis elegans, UniProt Q22236 1-425); assay: SPR; 20 C, steady-state affinity, no Mg2+; EMSA: 42.5 mM Tris-HCl pH 7.5, 115 mM KCl, 1 mM DTT, 0.1 mg/ml BSA, 3% glycerol, 0.15 mM EDTA, 20 C, 30 min, 300 nM DNA (10 nM plasmid), agarose gel; SPR: same; conditions: protein: recombinant; tags: none (His6-SUMO removed by Ulp1); label: 5'-biotin; blunt
T1 sequence: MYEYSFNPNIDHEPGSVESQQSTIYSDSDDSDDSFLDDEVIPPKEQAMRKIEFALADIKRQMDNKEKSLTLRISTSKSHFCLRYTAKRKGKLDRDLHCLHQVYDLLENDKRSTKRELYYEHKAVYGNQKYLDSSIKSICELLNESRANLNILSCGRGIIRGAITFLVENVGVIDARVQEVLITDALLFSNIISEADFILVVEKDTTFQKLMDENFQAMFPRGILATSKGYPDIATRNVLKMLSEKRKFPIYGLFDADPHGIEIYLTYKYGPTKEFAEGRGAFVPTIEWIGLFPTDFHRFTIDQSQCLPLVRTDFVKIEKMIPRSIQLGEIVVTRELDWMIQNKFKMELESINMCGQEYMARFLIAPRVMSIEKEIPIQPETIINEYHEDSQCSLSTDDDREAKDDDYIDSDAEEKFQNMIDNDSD

SPO-11 [2] = target: T1, SPO-11; assay: EMSA; 20 C, no Mg2+; EMSA: 42.5 mM Tris-HCl pH 7.5, 115 mM KCl, 1 mM DTT, 0.1 mg/ml BSA, 3% glycerol, 0.15 mM EDTA, 20 C, 30 min, 300 nM DNA (10 nM plasmid), agarose gel; SPR: same; conditions: protein: recombinant; tags: none (His6-SUMO removed by Ulp1); blunt
SPO-11 Y118F/Y119F = target: T2, SPO-11 Y118F/Y119F (Caenorhabditis elegans, UniProt Q22236 1-425, Y118F;Y119F); assay: EMSA; as proficient as WT; EMSA: 42.5 mM Tris-HCl pH 7.5, 115 mM KCl, 1 mM DTT, 0.1 mg/ml BSA, 3% glycerol, 0.15 mM EDTA, 20 C, 30 min, 300 nM DNA (10 nM plasmid), agarose gel; SPR: same; conditions: protein: recombinant; tags: none (His6-SUMO removed by Ulp1); blunt
T2 sequence: T1 sequence with Y118F, Y119F

SPO-11 Y119F = target: T3, SPO-11 Y119F (Caenorhabditis elegans, UniProt Q22236 1-425, Y119F); assay: as above; conditions: protein: recombinant; tags: none (His6-SUMO removed by Ulp1); blunt
T3 sequence: T1 sequence with Y119F

SPO-11 G290D = target: T4, SPO-11 G290D (Caenorhabditis elegans, UniProt Q22236 1-425, G290D); assay: EMSA; 20 C; EMSA: 42.5 mM Tris-HCl pH 7.5, 115 mM KCl, 1 mM DTT, 0.1 mg/ml BSA, 3% glycerol, 0.15 mM EDTA, 20 C, 30 min, 300 nM DNA (10 nM plasmid), agarose gel; SPR: same; conditions: protein: recombinant; tags: none (His6-SUMO removed by Ulp1); blunt
T4 sequence: T1 sequence with G290D

SPO-11 E202A/D255A = target: T5, SPO-11 E202A/D255A (Caenorhabditis elegans, UniProt Q22236 1-425, E202A;D255A); assay: EMSA; with Mg2+; as proficient as WT; EMSA: 42.5 mM Tris-HCl pH 7.5, 115 mM KCl, 1 mM DTT, 0.1 mg/ml BSA, 3% glycerol, 0.15 mM EDTA, 20 C, 30 min, 300 nM DNA (10 nM plasmid), agarose gel; SPR: same; conditions: protein: recombinant; tags: none (His6-SUMO removed by Ulp1); blunt
T5 sequence: T1 sequence with E202A, D255A

SPO-11 E202A = target: T6, SPO-11 E202A (Caenorhabditis elegans, UniProt Q22236 1-425, E202A); assay: as above; conditions: protein: recombinant; tags: none (His6-SUMO removed by Ulp1); blunt
T6 sequence: T1 sequence with E202A

SPO-11 [3] = target: T1, SPO-11; assay: EMSA; saturated at 4.8 uM SPO-11; EMSA: 42.5 mM Tris-HCl pH 7.5, 115 mM KCl, 1 mM DTT, 0.1 mg/ml BSA, 3% glycerol, 0.15 mM EDTA, 20 C, 30 min, 300 nM DNA (10 nM plasmid), agarose gel; SPR: same; conditions: protein: recombinant; tags: none (His6-SUMO removed by Ulp1); blunt
SPO-11 [4] = target: T1, SPO-11; assay: EMSA; 2.4 uM SPO-11, 300 nM DNA; EMSA: 42.5 mM Tris-HCl pH 7.5, 115 mM KCl, 1 mM DTT, 0.1 mg/ml BSA, 3% glycerol, 0.15 mM EDTA, 20 C, 30 min, 300 nM DNA (10 nM plasmid), agarose gel; SPR: same; conditions: protein: recombinant; tags: none (His6-SUMO removed by Ulp1); label: 3'-Cy5; blunt

B1: 100 bp dsDNA, 5'-biotin (dsDNA)
DNA 1: AATATGATAGATAATGATAGTGATGAGGGACGTGGATCTCTTCTTACCTGCGGAGACGTCGAGGAGAACCCAGGACCAGGGGTACCTATGGCCTCCTCCG
DNA 2: CGGAGGAGGCCATAGGTACCCCTGGTCCTGGGTTCTCCTCGACGTCTCCGCAGGTAAGAAGAGATCCACGTCCCTCATCACTATCATTATCTATCATATT
modifications: 5'-biotin (strand not stated)
B1 showed a Kd (SPO-11 [1]) of roughly 470 nM.

B2: 100 bp dsDNA (dsDNA)
DNA 1: B1 DNA 1
DNA 2: B1 DNA 2
B2: binds (SPO-11 [2]); binds (SPO-11 Y118F/Y119F); binds (SPO-11 Y119F). B2: no binding (SPO-11 G290D); binds (SPO-11 E202A/D255A); binds (SPO-11 E202A).

B3: 80 bp dsDNA (dsDNA)
DNA 1: TTATGTTCATTTTTTATATCCTTTACTTTATTTTCTCTGTTTATTCATTTACTTATTTTGTATTATCCTTATCTTATTTA
DNA 2: TAAATAAGATAAGGATAATACAAAATAAGTAAATGAATAAACAGAGAAAATAAAGTAAAGGATATAAAAAATGAACATAA
B3: binds (SPO-11 [3]).

B4: 80 bp dsDNA, Cy5 (dsDNA)
DNA 1: B3 DNA 1
DNA 2: B3 DNA 2
modifications: 3'-Cy5 on strand 1
B4: binds (SPO-11 [4]).
